Results on 10 molecules are retold here after patent US20070141048A1 (SYMPHOGEN A S, published 2007).

Residue numbers refer to the chain shown, from its start.

T1: Ovalbumin (UniProt P01012 2-386)
T1 sequence: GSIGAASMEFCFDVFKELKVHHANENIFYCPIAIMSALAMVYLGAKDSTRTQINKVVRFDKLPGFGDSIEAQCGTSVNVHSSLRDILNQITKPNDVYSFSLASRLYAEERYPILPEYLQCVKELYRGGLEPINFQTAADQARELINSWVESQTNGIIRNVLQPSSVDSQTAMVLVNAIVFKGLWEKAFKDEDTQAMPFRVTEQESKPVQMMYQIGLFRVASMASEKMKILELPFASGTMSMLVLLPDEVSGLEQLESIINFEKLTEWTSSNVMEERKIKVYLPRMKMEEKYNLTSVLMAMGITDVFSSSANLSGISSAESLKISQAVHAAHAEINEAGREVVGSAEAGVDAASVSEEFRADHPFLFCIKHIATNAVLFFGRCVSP

B1: g060a09 (Fab, V domains shown)
VH: GRAQVQLQESGPEVKKPGASVKVSCKASGYTFNSYGIAWVRQVPGQGLEWMGWISPYSGHTNYAEKVQGRVTMTTDTATSTACMELTSLRSDDTAVYFCARDYSSPYHFDYWGQGTWSPSR
VL: LADVVMTQSPSSLSASVGDRVTISCRASQPISTYLNWYQQKPGKAPKILIFGASRLQSGVPSRFSGSGSGTDFSLTITSLQPEDFATYICQQSKSPPYNFGRGTKLEIK
B2: g060f09 (Fab, V domains shown)
VH: EVQLVQSGAEVKKPGSSVKVSCKTEGGTFSTYVISWMRQAPGQGLEWMGGIVPIFNTPNYAQKFQGRVTITADRSTSTAYMELRSLGSEDTAVYYCARVVGGTRSYYALGFWGQGTTVTVS
VL: DIQLTQSPSSLSASVGDSVTITCRASQGISNFLAWYQKKPGKVPRLLIYGASTLQSGVPSRFSGSGSGTDFTLTISSLQPEDVATYYCQEYSNALIFTFGPGTKVHIK
B3: g060c07 (Fab, V domains shown)
VH: KVQLVQSGAEVKKPGESLKISCQASGYGFTVYWIGWVRQPPGKGLEWLGIIYPGDSDTRYNPSFQGQVTISADKSVSTTYLQWSSLKASDTAIYYCARHLDSYDVFTGYNLGGYMDVWGKGTLVTVS
VL: ETTLTQSPGTLSLSPGERATLSCRASQSVSTNYLAWYRQKPGQAPRLLIHGASSRATGIPDRFSGSGSGTDFTLTISRLEPEDFAVYFCQQYGSSPQTFGQGTRLEIK
B4: g060d11 (Fab, V domains shown)
VH: B3 VH
VL: B3 VL
B5: g060g02 (Fab, V domains shown)
VH: B3 VH with K1E, P40L, L123M
VL: B3 VL with E1D, T2I, T3Q
B6: g060h10 (Fab, V domains shown)
VH: EVQLVESGAEVKKPGSSVKVSCKASGGSFSTYAITWVRQAPGQGLEWMGGIIPIFASRDYAQKFQGRVTITADESTRTVYMELSSLRSDDTAVYYCARVLGGTRLYYALNVWGQGTTVTVS
VL: DIQLTQSPSSLSASVGDRVTITCRASQGISNFLAWYQQKPGKVPELLIYGASTLQSGVPSRFSGSGSGTEFTLTINSLQPEDVATYYCQKYDSGLRFTFGPGTKVDIK
B7: g060d05 (Fab, V domains shown)
VH: B6 VH with E1K, A24T, A33S, I52N, S57T, S84R, S85N, D89E, L100F, T117L
VL: DVVMTQSPSSLSASVGDRVTITCRASQGISNFLAWHQQKPGQVPKLLIYGASTLQSGVPSRFSGSGSGTDFTLTINGLQPEDVATYYCQKYDSGLIFTFGPGTRVEIK
B8: g060g11 (Fab, V domains shown)
VH: B6 VH with A33I, I34F, I52N, S57T, A61P, Q62K, R87T, D89E
VL: B7 VL with D1E, V2I, T22S, H36F, G50V, T72S, K90R, R104K
B9: g060h02 (Fab, V domains shown)
VH: B6 VH with E6Q, L83P, S84R, D89E, T117L
VL: B6 VL with D1E, Q3V, E70D, T103A
B10: g060d04 (Fab, V domains shown)
VH: B6 VH with E1K, I70V, T117M
VL: B6 VL with I2V, Q3V, L4M, S7F, T69A

For the experiment, the target named is T1, Ovalbumin. Kind of experiment: ELISA, periplasmic extract on coated Ovalbumin. For orientation: ELISA stands for enzyme-linked immunosorbent assay.
As to B1, the binding result is “no binding (tested: 10 µg/ml Ovalbumin coat)”.
For the molecule B2, the binding result was “no binding (tested: 10 µg/ml Ovalbumin coat)”.
To B3 belongs “no binding (tested: 10 µg/ml Ovalbumin coat)”.
To B4 belongs “no binding (tested: 10 µg/ml Ovalbumin coat)”.
As for B5, the binding result is “no binding (tested: 10 µg/ml Ovalbumin coat)”.
To B6 belongs “no binding (tested: 10 µg/ml Ovalbumin coat)”; to B7, “no binding (tested: 10 µg/ml Ovalbumin coat)”; to B8, “no binding (tested: 10 µg/ml Ovalbumin coat)”.
To B9 belongs “no binding (tested: 10 µg/ml Ovalbumin coat)”; to B10, “no binding (tested: 10 µg/ml Ovalbumin coat)”.
